# Assay results published in US20240384250A1, “FIBROBLAST GROWTH FACTOR 23 MODULATING COMPOUNDS” (THE UAB RESEARCH FOUNDATION, priority 2021, published 2024).
# T1: FGFR1c (Homo sapiens, UniProt P11362)
# T1 construct: Fc-coupled FGFR ectodomains were immobilized on protein A/G beads; purchased R&D Systems 658FR050
# T1 sequence (P11362 22-376 limits assumed): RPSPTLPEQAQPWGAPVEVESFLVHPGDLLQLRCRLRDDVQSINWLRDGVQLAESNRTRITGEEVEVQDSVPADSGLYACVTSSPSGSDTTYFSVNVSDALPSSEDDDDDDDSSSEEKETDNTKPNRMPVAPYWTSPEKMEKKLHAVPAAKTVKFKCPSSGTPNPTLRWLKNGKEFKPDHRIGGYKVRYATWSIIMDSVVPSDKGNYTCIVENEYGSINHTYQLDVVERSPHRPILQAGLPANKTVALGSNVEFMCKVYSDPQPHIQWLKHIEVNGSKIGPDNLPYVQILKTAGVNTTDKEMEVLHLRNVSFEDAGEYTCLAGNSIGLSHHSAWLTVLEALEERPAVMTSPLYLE
# T2: FGF23 (Homo sapiens, UniProt Q9GZV9)
# T2 construct: purchased R&D Systems 2604FG025/CF (human) or 2629FG025/CF (mouse)
# T2 sequence (Q9GZV9 25-251): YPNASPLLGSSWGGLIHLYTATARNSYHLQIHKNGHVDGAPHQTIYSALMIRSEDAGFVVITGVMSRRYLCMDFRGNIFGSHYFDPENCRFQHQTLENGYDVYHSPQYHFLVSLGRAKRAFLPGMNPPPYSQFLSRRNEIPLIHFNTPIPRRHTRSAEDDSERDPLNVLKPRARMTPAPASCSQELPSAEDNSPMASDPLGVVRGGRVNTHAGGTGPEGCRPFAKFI
# B1: FGF8b: recombinant human FGF8b from R&D Systems (protein)
# chain: QVTVQSSPNFTQHVREQSLVTDQLSRRLIRTYQLYSRTSGKHVQVLANKRINAMAEDGDPFAKLIVETDTFGSRVRVRGAETGLYICMNKKGKLIAKSNGKGKDCVFTEIVLENNYTALQNAKYEGWYMAFTRKGRPRKGSKTRQHQREVHFMKRLPRGHHTTEQSLRFEFLNYPPFTRSLRGSQRTWAPEPR
# B2: FGF5: recombinant human FGF5 from R&D Systems (protein)
# chain: EKRLAPKGQPGPAATDRNPRGSSSRQSSSSAMSSSSASSSPAASLGSQGSGLEQSSFQWSPSGRRTGSLYCRVGIGFHLQIYPDGKVNGSHEANMLSVLEIFAVSQGIVGIRGVFSNKFLAMSKKGKLHASAKFTDDCKFRERFQENSYNTYASAIHRTEKTGREWYVALNKRGKAKRGCSPRVKPQHISTHFLPRFKQSEQPELSFTVTVPEKKKPPSPIKPKIPLSAPRKNTNSVKYRLKFRFG
# B3: sKL-N694Q: sKL variant with glycosylation site Asn694 substituted by Gln (protein)
# chain: EPGDGAQTWARFSRPPAPEAAGLFQGTFPDGFLWAVGSAAYQTEGGWQQHGKGASIWDTFTHHPLAPPGDSRNASLPLGAPSPLQPATGDVASDSYNNVFRDTEALRELGVTHYRFSISWARVLPNGSAGVPNREGLRYYRRLLERLRELGVQPVVTLYHWDLPQRLQDAYGGWANRALADHFRDYAELCFRHFGGQVKYWITIDNPYVVAWHGYATGRLAPGIRGSPRLGYLVAHNLLLAHAKVWHLYNTSFRPTQGGQVSIALSSHWINPRRMTDHSIKECQKSLDFVLGWFAKPVFIDGDYPESMKNNLSSILPDFTESEKKFIKGTADFFALCFGPTLSFQLLDPHMKFRQLESPNLRQLLSWIDLEFNHPQIFIVENGWFVSGTTKRDDAKYMYYLKKFIMETLKAIKLDGVDVIGYTAWSLMDGFEWHRGYSIRRGLFYVDFLSQDKMLLPKSSALFYQKLIEKNGFPPLPENQPLEGTFPCDFAWGVVDNYIQVDTTLSQFTDLNVYLWDVHHSKRLIKVDGVVTKKRKSYCVDFAAIQPQIALLQEMHVTHFRFSLDWALILPLGNQSQVNHTILQYYRCMASELVRVNITPVVALWQPMAPNQGLPRLLARQGAWENPYTALAFAEYARLCFQELGHHVKLWITMNEPYTRQMTYSAGHNLLKAHALAWHVYNEKFRHAQNGKISIALQADWIEPACPFSQKDKEVAERVLEFDIGWLAEPIFGSGDYPWVMRDWLNQRNNFLLPYFTEDEKKLIQGTFDFLALSHYTTILVDSEKEDPIKYNDYLEVQEMTDITWLNSPSQVAVVPWGLRKVLNWLKFKYGDLPMYIISNGIDDGLHAEDDQLRVYYMQNYINEALKAHILDGINLCGYFAYSFNDRTAPRFGLYRYAADQFEPKASMKHYRKIIDSNGFPGPETLERFCPEEFTVCTECSFFHTRKS
# modifications: left off: small tags and cut ends
# notes: sKL variant with glycosylation site Asn694 substituted by Gln
# How the values were obtained:
# [1] = test system: phosphorylated ERK in HEK293T cells; experiment: ERK phosphorylation in serum-starved HEK293 cells (Western blotting); assay type: cell-based, human; conditions: FGF 1.1 nM for 10 minutes, absence of sKL
# Method: The sample (20 μl) was loaded onto Mini-PROTEAN TGX Precast Gel 4-20% for experiments with <9 samples (4568094, Bio-Rad) or Criterion TGX Precast Gel 4-20% (5678094, Bio-Rad) for experiments with >9 samples. Gels were run in 1× Tris/Glycine/SDS buffer (1610732, Bio-Rad) at 150 V and stopped when the sample dye reached the end of the gel. Gels were removed and electrotransferred via a semi-dry cassette (1703940, Bio-Rad) in I× Tris/Glycine buffer (1610734, Bio-Rad) with 20% methanol. Gels were transferred onto polyvinylidene diflouride membranes (IPVH00010, Millipore) at 20 V for 1 hour. Membranes were then blocked in 5% dried milk with 0.5% Tween 20 diluted in Tris-buffered saline (TBST; pH 7.5) for 1 hour and probed with antibodies against specific antigens at 1:1000 in TBST with 5% dried milk. Blots were washed 3× for 5 minutes in TBST and probed with HRP-coupled secondary antibodies against specific species at 1:10,000 in TBST with 5% dried milk. Membranes were imaged on the SRX-101A X-ray film developer (Konica Minolta).
# To determine the cellular activity of paracrine FGFs, the activation/phosphorylation of ERK in HEK293 cells after treatment was studied. HEK293 cells were seeded in 6-well plates in DMEM (26140079, Gibco) supplemented with I× Pen/Strep (15140122, Gibco) and 10% FBS (26140079, Gibco) and grown for 48 hours. Upon reaching 80% confluence, cells were serum starved overnight in DMEM and 1× Pen/Strep without FBS. The medium was changed, and cells were treated with sKL at 2 μg/ml or vehicle (sKL elution buffer: 25 mM Tris ph 8.0, 500 mM NaCl) for 15 minutes. Cells were then treated with various FGFs at 1.1 nM for 10 minutes. Cells were lysed in 200 μl of RIPA with the addition of a protease inhibitor (11836153001, Roche) and phosphatase inhibitors (P5726 and P0044, Sigma-Aldrich) for 30 minutes. The mixture was then centrifuged at 20,000 g for 60 minutes to remove all cell debris. One hundred microliters of 1× Laemmli sample buffer (1610737, Bio-Rad) with 1.42 M 2-mercaptoethanol was added, and samples were boiled for 5 minutes. Twenty microliters of samples was loaded onto 12% SDS-PAGE gels and analyzed using Western blotting for total and phosphorylated ERK.
# FGFR1c = biological target: T1, FGFR1c; experiment: Plate-based binding assay, FGFR1c coated, FLAG-sKL detected with anti-FLAG HRP; conditions: purified protein
# Method: (§1) Proteins were coated on 96-well plates (MaxiSorp; 439454, Thermo Fisher Scientific), and proteins were added to wells in 100 μl of enzyme-linked immunosorbent assay (ELISA) coating buffer (E107, Bethyl Laboratories) with a lid placed overtop and incubated at 4° C. overnight. Plates were washed 5× with 350 μl of assay buffer (50 mM Tris [pH 7.4], 200 mM NaCl, 0.01% Tween 20) on a 50 TS microplate washer (BioTek). Plates were blocked for 1 hour in 200 μl of assay buffer with 0.5% BSA. Plates were washed as before, and proteins were incubated on plates in 100 μl of assay buffer with 0.5% BSA. Proteins or heparin was incubated in orders described in the respective figure legends. Assays using FLAG-tag-based detection were incubated with anti-FLAG coupled to HRP at 1:20,000, and assays using Fc detection were incubated with anti-human Fc coupled to HRP at 1:10,000. Plates were washed as above, and 100 μl of 3,3′,5,5′-tetramethylbenzidine (TMB) substrate (E102, Bethyl Laboratories) was added for 15 to 20 minutes until positive wells developed a dark blue color. Reactions were stopped with ELISA stop solution (E115, Bethyl Laboratories) and analyzed using the Synergy HI plate reader (BioTek) at 450 nm wavelength. […] As a control to remove background absorbance values, wells were coated with an equal amount of BSA to match the amount of protein coated in experimental wells and treated the same as experimental wells. To study the effects of sKL on the binding between paracrine FGFs and FGFRs, plates were run as above except coated with paracrine FGFs. Fc-FGFR1 was preincubated with sKL or vehicle for 60 minutes, and then the combination was added to wells and the assay was run as before.
# FGF23 = biological target: T2, FGF23; experiment: Plate-based binding assay, FGF23 coated, FLAG-sKL detected with anti-FLAG HRP; conditions: 100 ng FGF23 coated
# Method: as §1
Molecule,ERK phosphorylation induced by FGF [1],binding affinity for FGFR1c compared with wildtype sKL (FGFR1c),FGF23 binding of sKL variants in HEK293 cell media compared with wildtype sKL (FGF23)
B1,induced ERK phosphorylation,–,–
B2,induced ERK phosphorylation,–,–
B3,–,does not affect,increased FGF23 binding
